The record followed here is PMC3048092.

The target in this experiment is FITC-BAD pSAHB-2. Nature of the experiment: cross-linking.

Substance BCL-XLΔC (domain or fragment) showed a crosslinking conversion at 2 hours of UV exposure of 35%.
